From the nanobody polyreactivity screen of Harvey et al. (2022)

Experiment: yeast display, Sf9 membrane polyspecificity reagent, FACS + sequencing; frameworks hold sequencing errors
Procedure, shortened: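 Polyreactivity labels are assigned by the sorting gate from which each nanobody was recovered. The gates were low and high (top ~1%), set on anti-HA fluorescence for expression and streptavidin fluorescence for reagent binding. Before sorting, galactose-induced (36–48 hours) yeast display cells were stained for 1 hour at 4 °C with 10% biotinylated, detergent-solubilized Sf9 membrane reagent.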
For “QVQLVESGGGLVQAGGSLRLSCAASGSIFGSYAMGWYRQAPGKERELVAGIRSGGSTYYADSVKGRFTISRDNAKNTVYLQMNSLKPEDTAVYYCAGHEEYWGQGTQVTVSS”, the “polyreactivity (PSR sort gate)” value was “low polyreactivity”.
In the case of “QVQLVESGGGLVQAGGSLRLSCAASRFTFLTNAMGWYRKAPGTERELVAAISSGGNTNYADSVKGRFTISRDNAKNTVYLQMNSLKPEDTAVYYCAADNDYLSSQVSYDYWGQGTQVTVSS”, the “polyreactivity (PSR sort gate)” value is reported as “low polyreactivity”.
In the case of “QVQLVESGGGLVQAGGSLRLSCAASGSNFRGNAKGWSRQAPGKERELVAAISKSGGSTYYADSVKGRFTISRDNAKNTVYLQMNSLKPEDTAVYYCAARTTYLYGMYYWGQGTQVTVSS”, the “polyreactivity (PSR sort gate)” value is reported as “low polyreactivity”.
In the case of “QVQLVESGGGLVQAGGSLRLSCAASGYIFGYYAMGWYRQAPGQEREFVAAINWSGGSTYYADSVNGRFTISRDNAKNTVYLQMNSLKPEDTAVYYCARSYRSRVVYKFGYWGQGTQVTVSS”, the “polyreactivity (PSR sort gate)” value is reported as “high polyreactivity”.
For “QVQLVESGGGLVQAGGSLRLSCAASGRTFYYYAMGWYRQAPGKERELVAAITGSGANTYYADSVKGRFTISRDNAKNTVYLQMKSLKPEDTAVYYCNKYRTLRNGWGSGYYYWGQGTQVTVSS”, the “polyreactivity (PSR sort gate)” value was “high polyreactivity”.
With “QVQLVESGGGLVQAGGRLRLSCAASGSTFGTYAMGWYRHAPGKERELVAAITRSGGSTYYADSVKGRFTISRDNAKNTVYLQMNSLKPDDTAVFYCAAVSKGYYYWGQGTQVTVSS” the “polyreactivity (PSR sort gate)” value was “high polyreactivity”.
With “QVQLVESGGGLVQAGGSLRLSCAASGRTFGRNAMGWYRQAPGKERELVAAISSSGGRTYYADSVKGRFTISRDNAKNTVYLQMNSLKPEDTAVYYCNALTYYRDYWGQGTQVTVSS” the “polyreactivity (PSR sort gate)” value was “high polyreactivity”.
In the case of “QVQLVESGGGLVQAGGSLRLSCAASGFTLYHYAMGWYRQAPGKERELVAAITTSGSRTYYADSVKGRFTISRDNAKNTVYLQMNSLKPEDTAVYYCNAVASSTEYDYWGQGTQVTVSS”, the “polyreactivity (PSR sort gate)” value is reported as “high polyreactivity”.
For “KVQLVESGGGLVQAGGSLRLSCAASGGTFSYNAMGWYRQAPGKERELVAAISWSGTRTYYADSVKGRFTISRDNAKNTVYLQMNSLKPEDTAVYYCNKPPPNRGRYDYWGQCTQVTVSS”, the “polyreactivity (PSR sort gate)” value was “low polyreactivity”.
With “QVQLVESGGGLVQAGGSLRLSCAASGFTFWFYAMGWYRQAPGKERELVAAISWDGSRTYYADSVKGRFTISRDHAKNTVYLQMNSLKPEDTAVYYCAAESEDSNYNYWGQGTQVTVSS” the “polyreactivity (PSR sort gate)” value was “high polyreactivity”.
For “QVQLVESGGGLVQAGGSLRLSCAASGFTFRYNAMGWYRQAPGKKGSWVAAISRTGGSTYYADSVKGRFTISRDNAKNTVYLQMNSLKPEDTAVYYCATYSSRQRKSSYYYWGQGTQVTVSS”, the “polyreactivity (PSR sort gate)” value was “high polyreactivity”.
For “QVQLVESGGGLVQAGGSLRLSCAASGFIFYRYAKGWYRQPPGKERELVAAITKSGTSTYYADSVKGRFTISRDNAKNTVYLQMNSLKPEDTAVYYCNADVRSRSRGSSGYDYWGQGTQVTVSS”, the “polyreactivity (PSR sort gate)” value was “low polyreactivity”.
In the case of “QVQLVESGGGLVQAGGSLRLSCAASGRTFYVYAMGWYRHAPGKERELVASIRRSGGITYYADSVKGRFTISRDNAKNTVYLQMNSLKPEDTAVYYCNARRGPGRREYDYWGQGTQVTLSS”, the “polyreactivity (PSR sort gate)” value is reported as “high polyreactivity”.
For “QDQLVESGGGLVQAGGSLRLSCAASGLTFAPYAMGWYREAPGKERELVAAISNGGSTYYADSVKGRFTISRDNAKNTVYLQMISLKPEDTAVYYCADRAFYFWRGYDYWGQGTQVTVSS”, the “polyreactivity (PSR sort gate)” value was “high polyreactivity”.
For “QVQLVESGGGLVQAGGSHRLICAASGFIVSYHAMGWYRPAPGKESELVAAISSRGGSTYYADSVKGRFTISRDNAKNTVYLQMNSLKPEDTAVYYCATAGLTYRALRYYWGQGTQVTVSS”, the “polyreactivity (PSR sort gate)” value was “high polyreactivity”.
In the case of “QVQLVESAGGLVPAGGSLRLSCAASGSIIITKAMGWYRQAPGKERELVAAISWTDDITYYADSVKGRFTISRDNAKNTVYLQMNSLKPEDTAVYYCAAEETSYAYDYWGQGTQVTVSS”, the “polyreactivity (PSR sort gate)” value is reported as “low polyreactivity”.
For “QFQLVESGGGLVQAGGSLRLSCAASGSIFSYYAMGWYRQAPGKERELVAGITWSGGRTYYADSVKGRFTISRDNAKNTVYLQMNSLKPEDTAVYYCAAAVKRALDYWGQGTQVTVSS”, the “polyreactivity (PSR sort gate)” value was “high polyreactivity”.
With “HVQLVESGGGLVQAAGSLRLSCAASGRIFSAYAMGWYRQAPGKEREFVAAITQSGGSTYYAESVKGRFTISRDNAKNTVYLQMNSLKPEDTAVYYCAAGDAYYTEALPFGEYDYWGQGTQVTVSS” the “polyreactivity (PSR sort gate)” value was “low polyreactivity”.
For “QVQLVESGGGLVQAGGSLRLSCAASGGTFKTYAMGWYRQAPGKERELVAAITSSSSRTHYADSVKGRFTISRDNAKYTVYLQMNSLKPEVTAVYYCAAAIPSYTRTGYWGQGTQVTVSS”, the “polyreactivity (PSR sort gate)” value was “high polyreactivity”.
For “QVQLVESGGGLVQAGGSLRLSCAASGSTFWYYVMGWYRQAPGKERELVAAISTRGDSTYYADSVKGRFTISRDNAKNTVYLQMNSLKPEETAVYYCAKYRQSSGRVRFDYWGQGTQVTVSS”, the “polyreactivity (PSR sort gate)” value was “low polyreactivity”.
With “QVQLVESGGVLVQAGGSLRLSCAATGYIFHLYGMGWYRQAPGKERELVARITYRRGSTYYADSVKGRFTISRDNAKNTVYLQMNSLKPEDTAVYYCAKRRGYGYNYWGQGTQVTVSS” the “polyreactivity (PSR sort gate)” value was “high polyreactivity”.
With “QVQLVESGGGLVQAGGSLRLSCAASGFTFPRYAMGWYRQAPGKERELVAAISTSGDSTYYADSVKGRFTISRDNAKNTVYLQMNSLKPEDTAVYYCAARVVRGRYGYWGQGTQVTVSS” the “polyreactivity (PSR sort gate)” value was “high polyreactivity”.
With “QVQLVESGGGLVQAGGSLRLSCAASGFIFSSYAMGWYRQAPGKERELVAAISRSGGRTYYADSVKGRFTISRDNAKNTVYLQMNSLKPEDTAVYYCAAKRWWQYYWGQGTQVTVSS” the “polyreactivity (PSR sort gate)” value was “high polyreactivity”.
In the case of “QVQLVESGGGLVQAGGSLRLSCAASGSTFSNNARGWYRQAPGKERELVAAISRSGGSTYYADSVKGRFTISRDNAKNTVYLQMNSLKPEDTAVYYCAAYAPYYRTMDYWGQGTQVTVSS”, the “polyreactivity (PSR sort gate)” value is reported as “high polyreactivity”.
With “QVQLVESGGGLVQAGGSLRLSCAASGFTFSSNAMGWYRQAPGKERELVAAIRSDGVRTYYADSVKGRFTISRDNAKNTVYLQMNSLKPEDTAVYYCNSVSDVRIGAGDYWGQGTQVTVSS” the “polyreactivity (PSR sort gate)” value was “high polyreactivity”.
For “QVQLVESGGGLVQAGGSLRLSCAASGLIFYFNGMGLYRQAPGKERELVASISASGDRTYYADSVKGRFTISRDNAKNTVYLQMNSLKQEDTAVYYCATDANTYTKYDYWGQGTQVSVSS”, the “polyreactivity (PSR sort gate)” value was “low polyreactivity”.
For “QVQLVESGGGLVQAGGSLRLSCAASGYIFLAYAMGWYRQAPGKERELVADNTYADSVKGRFTISRDNAKNTVYLQMNSLKPEDTAVYYCNADEVYDEYSYDYWGQGTQVTVSS”, the “polyreactivity (PSR sort gate)” value was “low polyreactivity”.
In the case of “QVQLVESGGGLVQAGGSLRLSCAASGFIFAINAMGWYRQAPGKEREFVAAISSDGASTYYADSVKGRFTISRDNAKNTVYLQMNSLKPEDTAVYYCNAVPYEWTYPYEYYYWGQGTQVTVSS”, the “polyreactivity (PSR sort gate)” value is reported as “low polyreactivity”.
With “QVQLVESGGGLVQAGGSLRLSCASSGRTYNVMGWYRQATGKERELVAAITWRGGSTHYADSVKGRFTISRDNAKNTVYLQMNSLKAEDTAVYYCSADLLYKSTRVDYWGQGTQVTVSS” the “polyreactivity (PSR sort gate)” value was “low polyreactivity”.
In the case of “QVQLVESGGGLVQAGGSLRLSCAASGSILNGYAMGLYRQAPGKERELVAAISGSGGSTHYADSVKWRFTISRDNAKNTVYLQMNSLKPEDTAVYYCAAAYKWTYYWGQGTQVTVSS”, the “polyreactivity (PSR sort gate)” value is reported as “high polyreactivity”.
With “QVQLVESGGGLVQAGGSLRLSCAASGRIFPHYAMGWFRQAPGKERELVAAISSGGRTNYADSVKGRFTISRDNAKNTVYLQMNSLKREDSAVYYCAAEAPFYVIGRRYRGYDYWGQGTQVTVSS” the “polyreactivity (PSR sort gate)” value was “high polyreactivity”.
With “QVQLVESGGGLFQAGGSLRLSCAASGLTFVDNSMGWYRQAPGKEREFVAAITKRGGRTYYADSVKGRFTISRDNAKNTVYLQMTSLKPEDTAVYYCARESGNDSSRRLDYWGQGTQVTVSS” the “polyreactivity (PSR sort gate)” value was “low polyreactivity”.
With “QVQLVESGGGLVKAGGSLRLSCAASGRIFGRYAMGWYRQAPGKEREFVAAISKRGGGTYYADSVKGRFTISRDNAKNTVYLQMNSLKPEDTAVYYCAVDNSPGFDDYDYWGQGTQVTVSS” the “polyreactivity (PSR sort gate)” value was “high polyreactivity”.
For “QGQLVESGGGLVQEGGILHLTCAASGRIFCYYDMGWSRQEPGKERELVAAISRSGGSTYYADSVKGRFTISRDNAKNTVYLQMNSLKPEDTAVYYCAAEYYGFSWAGYYYWGQGTQVTVSS”, the “polyreactivity (PSR sort gate)” value was “high polyreactivity”.
With “QVQLVESGGGLVQAGGSLRLSCAASGNIFKWYAMGWYRQAPGKERELVAAISKSGGSTYYADSVKGRFTISRDNAKNTVYLQMNSLKPEDTAVYYCAAGWKHGTYRYTVESNFDYWGQGTQVTVSS” the “polyreactivity (PSR sort gate)” value was “high polyreactivity”.
In the case of “QVQLVESGGRLVQAGGSLRLSCAASGRIFVYNAMRWYRQAPGKERELVASITSSGGSTYYADSVKGRFTISRDNAKNTVYLQMNSLKPEDTAVYYCAADVQPDTRSTPEMDYWGQGTQVTVSS”, the “polyreactivity (PSR sort gate)” value is reported as “low polyreactivity”.
In the case of “QVQLVESGVGLVQAGGSLRLSCAASGRTFSTNAMGWYIQAPGKERELVAAITSRGGSTYYADSVKGRFTISRDNAKNTVYLQMNSLKPEDTAVYYCAVDPLYSKTHYVTLGYYYWGQGTQVTVSS”, the “polyreactivity (PSR sort gate)” value is reported as “low polyreactivity”.
For “QVHIVESGGGLVQAGGSLRLSCAASGFTFFSNAMGWYRQAPGKQRELVASISASGSGTYYAVSVKGRFTISRDNAKNTFYLQMNSLKPDDTAVYYCSTRVGKILTTKYGYWGQGTQVSVSS”, the “polyreactivity (PSR sort gate)” value was “high polyreactivity”.
With “QVQLVESVGGLVQPGGSLRLSCAASGRTFGRYAKGWYRQAPGKERELVAGISRSGDSTHYADSLKGRFTISRDNAKYCVYLQMKSLKPEDTEVYYCNKETPTIGARKYEYWGQGTQVNVSS” the “polyreactivity (PSR sort gate)” value was “low polyreactivity”.
With “QVQLVESGGGLVQAGGSLRLSCAASGRIFSTYAMGWYRQAPGKERELVAAINSIGGRTYYADSVKGRFTISRDNAKNTVYLQMNSLKPEDTAVYYCAAGYRTRRGLGYYYWGQGTQVTVSS” the “polyreactivity (PSR sort gate)” value was “high polyreactivity”.
In the case of “QVQLVESGGGLVQAGGSLRLRCAASGSIFWWYTMGWYRQAPGKERELVASISWSGTSTYYADSVKGRFTISRDNAKYTVYLQMNSLKPEDTALYYCNAVVYWPGTPYTHDDWGQGTQVTVSS”, the “polyreactivity (PSR sort gate)” value is reported as “low polyreactivity”.
